Among the data in patent US20200108091A1, “GUT-PROTECTIVE EFFECT OF RIG-1/MAVS AND STING ACTIVATION” (MEMORIAL SLOAN-KETTERING CANCER CENTER, priority 2017, published 2020) are number of organoids and organoid size values, retold here.

For the test, the system named is small intestinal organoids. Nature of the test: Ex vivo organoid culture of small intestine crypts. Format: cell-based, mouse. The method, then:
Isolation of intestinal epithelial crypts was performed as previously described (26). Briefly, after harvesting small intestines, the organs were opened longitudinally and washed. Small intestine was incubated in 10 mM ethylenediamine-tetraacetatic acid (EDTA) for 25 min (4° C.) to dissociate the crypts. The supernatant containing crypts was collected.
250 crypts per well were suspended in growth factor reduced Matrigel (Corning) (33% ENR-medium; 66% growth factor reduced Matrigel) at 4° C. Then, they were plated in delta-surface Nunc 24-well plates in 30 μL drops, each containing approximately 250 crypts. […]
To determine the effect of 3pRNA/interferon stimulatory DNA/rmIFN-β on organoid size and morphology, bright-field microscopy images were taken using a Zeiss Axiovision Observer microscope with a 5× objective lens after 5 or 7 days in culture. 2D area and perimeter were analyzed using border perimeter tracing of organoids found in four representative fields of each well using Image J software. For assessment of gene expression by quantitative (q) PCR, organoids were subjected to RNA extraction 24 hours after culture using Trizol reagent (Invitrogen) according to manufacturer's protocol. Isolated RNA was reverse-transcribed using the Quantitect Reverse Transcription Kit (Qiagen). […]

B1: recombinant IFN-β: recombinant murine (rm) IFN-β (20 U/ml; PBL (12400-1)) (protein, UniProt P01575 22-182, looked up)
Interferon beta: INYKQLQLQERTNIRKCQELLEQLNGKINLTYRADFKIPMEMTEKMQKSYTAFAIQEMLQNVFLVFRNNFSSTGWNETIVVRLLDELHQQTVFLKTVLEEKQEERLTWEMSSTALHLKSYYWRVQRYLKLMKYNSYAWMVVRAEIFRNFLIIRRLTRNFQN
For B1, under “7 days in culture, IFN-β 20 U/ml or α-IFNaR1 Ab 10 ug/ml”, the number of organoids entry is reported as “Neither recombinant IFN-β nor IFNAR blockade could influence”. Under “recombinant murine IFN-β 20 U/ml, 5 or 7 days in culture”, the organoid size entry is listed as “increased organoid size”.
